The values that follow come from patent US20080234193A1 (published 2008).

The target of data set [1] is native rVWF 133P1 (human) (UniProt P04275). Briefly: SPR (Biacore 3000): native rVWF 133P1 immobilized on CM5 chip, FVIII sample in flow, 1:1 Langmuir model.
In data set [2] the target is activated factor IX (FIXa). Briefly: cell-based or functional assay.
The target of data set [3] is PEG-rFVIII Lys 20K br short (UniProt P00451).
In data set [4] the target is PEG-rFVIII Lys 40K br long (UniProt P00451).
Data set [5] concerns the target FVIII control (mock preparation, not PEGylated) (UniProt P00451).
Data set [6] deals with PEG-rFVIII Lys 60K br long (UniProt P00451).
For data set [7], the target named is PEG-rFVIII Lys 40K br short (UniProt P00451).
The target in data set [8] is PEG-rFVIII Lys 60K br short (UniProt P00451).
Data set [9] concerns the target PEG-rFVIII Lys 20K br long (UniProt P00451).
In data set [10] the target is native rFVIII MOQ HEPES 01-E (Advate rAHF-PFM bulk drug substance) (UniProt P00451). The experiment in a line: ELISA chromogenic assay (ECA): VWF-rFVIII complex captured on anti-VWF antibody, bound FVIII by chromogenic assay.
Data set [11] has the same target. Briefly: ECA, value as percent of VWF:Ag.
Data set [12] has the same target. Briefly: ECA, value related to the rVWF protein.
Data set [13] has the same target.
Data set [14] has the same target. The experiment in a line: ELISA chromogenic assay (ECA); mean of 133P1-1 to 133P1-3.
For data set [15] the target is unchanged. The experiment in a line: ECA after in vitro incubation in Hepes buffer pH ~7.5 at ambient temperature, day 0.
For data set [16] the target is unchanged. The experiment in a line: SPR (Biacore 3000): rVWF sample immobilized on CM5 chip, rFVIII in flow, 1:1 Langmuir model; mean of 133P1-1 and 133P1-2.
The target is the same in data set [17]. The experiment in a line: SPR competition (Biacore): VWF-rFVIII complex (5 IU/ml rFVIII) in flow over immobilized unmodified rVWF (competitor).
For data set [18] the target is unchanged. The experiment in a line: SPR (Biacore 3000): rVWF sample immobilized on CM5 chip, rFVIII in flow, 1:1 Langmuir model.
The target is the same in data set [19]. Briefly: ELISA chromogenic assay (ECA): VWF-rFVIII complex captured on anti-VWF antibody, bound FVIII by chromogenic assay. The source holds these as a separate data set.
For data set [20] the target is unchanged. The experiment in a line: ECA after in vitro incubation in Hepes buffer pH ~7.5 at ambient temperature, day 8.
Data set [21] has the same target. The experiment in a line: ECA after in vitro incubation in Hepes buffer pH ~7.5 at ambient temperature, day 2.
Data set [22] shares this target. The experiment in a line: SPR (Biacore 3000): rVWF sample immobilized on CM5 chip, rFVIII in flow, 1:1 Langmuir model. This is another data set of the same source.
Data set [23] has the same target. Briefly: ELISA chromogenic assay (ECA): VWF-rFVIII complex captured on anti-VWF antibody, bound FVIII by chromogenic assay; percent of VWF:Ag.
Data set [24] has the same target. The experiment in a line: ECA after in vitro incubation in Hepes buffer pH ~7.5 at ambient temperature, day 5.
Data set [25] has as its target PEG-rVWF Lys 20K br long low, P04275.
Data set [26] has as its target native rVWF 133P1, P04275.
The target in data set [27] is PEG-rVWF Lys 40K br long low, P04275.
Data set [28] deals with PEG-rVWF Lys 40K br short low, P04275.
For data set [29], the target named is PEG-rVWF Lys 20K br short low, P04275.

“And” between values parts separate entries of the source, which are not always exact repeats. Equal entries are not always repeated.

PEG-rFVIII Lys 40K br long, sequence (P00451 whole entry, looked up): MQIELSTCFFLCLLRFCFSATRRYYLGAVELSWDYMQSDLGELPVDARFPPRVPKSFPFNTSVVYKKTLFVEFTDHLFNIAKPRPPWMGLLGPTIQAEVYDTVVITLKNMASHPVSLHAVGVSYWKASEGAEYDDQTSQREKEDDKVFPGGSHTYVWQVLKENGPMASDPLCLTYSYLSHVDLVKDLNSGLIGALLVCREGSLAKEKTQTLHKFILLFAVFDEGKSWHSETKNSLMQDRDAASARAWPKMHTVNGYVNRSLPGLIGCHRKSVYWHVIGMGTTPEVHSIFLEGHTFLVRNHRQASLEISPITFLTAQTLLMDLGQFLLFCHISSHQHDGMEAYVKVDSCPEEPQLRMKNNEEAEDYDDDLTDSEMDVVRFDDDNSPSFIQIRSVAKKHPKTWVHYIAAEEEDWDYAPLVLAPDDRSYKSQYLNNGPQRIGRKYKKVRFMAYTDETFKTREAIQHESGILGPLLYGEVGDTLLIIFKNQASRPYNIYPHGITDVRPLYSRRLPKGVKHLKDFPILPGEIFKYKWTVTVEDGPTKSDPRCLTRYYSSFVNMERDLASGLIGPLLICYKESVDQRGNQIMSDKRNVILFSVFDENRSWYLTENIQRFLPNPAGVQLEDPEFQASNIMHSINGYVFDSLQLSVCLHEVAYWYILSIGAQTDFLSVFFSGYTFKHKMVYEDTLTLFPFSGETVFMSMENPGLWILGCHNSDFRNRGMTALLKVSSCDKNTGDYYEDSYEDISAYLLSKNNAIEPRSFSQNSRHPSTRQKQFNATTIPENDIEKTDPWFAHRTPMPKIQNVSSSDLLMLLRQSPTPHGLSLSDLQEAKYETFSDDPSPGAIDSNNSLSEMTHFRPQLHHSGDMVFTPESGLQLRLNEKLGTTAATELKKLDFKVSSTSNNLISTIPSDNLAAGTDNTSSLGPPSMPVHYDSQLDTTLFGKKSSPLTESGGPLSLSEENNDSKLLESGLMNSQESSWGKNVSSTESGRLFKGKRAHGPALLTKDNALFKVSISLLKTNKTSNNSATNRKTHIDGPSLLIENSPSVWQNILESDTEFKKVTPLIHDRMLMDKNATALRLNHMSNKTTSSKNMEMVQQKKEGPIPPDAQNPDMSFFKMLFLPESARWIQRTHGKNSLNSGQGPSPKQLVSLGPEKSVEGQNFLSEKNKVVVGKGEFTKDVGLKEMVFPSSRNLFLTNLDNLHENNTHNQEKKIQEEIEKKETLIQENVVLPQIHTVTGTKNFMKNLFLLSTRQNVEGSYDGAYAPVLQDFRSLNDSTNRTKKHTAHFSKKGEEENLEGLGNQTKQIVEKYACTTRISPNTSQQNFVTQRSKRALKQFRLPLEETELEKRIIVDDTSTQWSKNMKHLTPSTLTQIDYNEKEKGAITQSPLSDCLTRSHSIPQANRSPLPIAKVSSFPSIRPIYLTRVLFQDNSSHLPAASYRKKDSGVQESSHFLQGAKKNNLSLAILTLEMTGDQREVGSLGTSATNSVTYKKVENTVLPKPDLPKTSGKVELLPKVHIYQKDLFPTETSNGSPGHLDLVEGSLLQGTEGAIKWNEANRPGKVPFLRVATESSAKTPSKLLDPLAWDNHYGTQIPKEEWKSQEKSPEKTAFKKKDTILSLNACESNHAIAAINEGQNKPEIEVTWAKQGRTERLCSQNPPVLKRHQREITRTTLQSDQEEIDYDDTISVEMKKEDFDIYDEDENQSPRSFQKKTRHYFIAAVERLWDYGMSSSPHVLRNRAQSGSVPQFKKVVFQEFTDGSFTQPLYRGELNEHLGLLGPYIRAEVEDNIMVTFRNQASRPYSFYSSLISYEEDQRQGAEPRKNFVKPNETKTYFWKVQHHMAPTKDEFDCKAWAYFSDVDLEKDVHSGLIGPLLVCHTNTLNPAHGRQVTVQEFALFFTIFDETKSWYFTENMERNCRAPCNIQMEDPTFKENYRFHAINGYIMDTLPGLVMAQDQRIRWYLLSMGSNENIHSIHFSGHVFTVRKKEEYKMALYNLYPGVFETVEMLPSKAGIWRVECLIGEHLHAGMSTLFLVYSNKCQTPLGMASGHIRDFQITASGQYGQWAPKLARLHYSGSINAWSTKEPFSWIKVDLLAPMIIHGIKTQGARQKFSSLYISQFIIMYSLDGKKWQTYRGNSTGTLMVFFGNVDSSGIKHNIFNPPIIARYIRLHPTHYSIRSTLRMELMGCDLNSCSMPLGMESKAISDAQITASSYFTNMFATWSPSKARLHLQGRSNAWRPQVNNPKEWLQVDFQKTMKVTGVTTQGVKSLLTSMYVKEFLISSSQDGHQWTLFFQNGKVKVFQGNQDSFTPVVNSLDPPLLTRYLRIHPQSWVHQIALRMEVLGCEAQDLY
PEG-rFVIII Lys 60K br short, sequence (P00451 whole entry, looked up): as above
PEG-rFVIII Lys 60K br long, sequence (P00451 whole entry, looked up): as above
PEG-rFVIII Lys 40K br short, sequence (P00451 whole entry, looked up): as above
PEG-rFVIII Lys 20K br long, sequence (P00451 whole entry, looked up): as above
PEG-rFVIII Lys 20K br short, sequence (P00451 whole entry, looked up): as above
FVIII control (mock preparation, not PEGylated), sequence (P00451 whole entry, looked up): as above
native rFVIII MOQ HEPES 01-E (Advate rAHF-PFM bulk drug substance), sequence (P00451 whole entry, looked up): as above

Consider “native rFVIII MOQ HEPES 01-E (Advate rAHF-PFM bulk drug substance) (from UniProt P00451 20-2351)”, for which the Kd in data set [1] stood at 1.5 nM. Besides, in data set [2], the lag phase (min), FIXa-cofactor activity after thrombin activation was 1.15 min; the lag phase (min), FIXa-cofactor activity without thrombin activation worked out at 2.4 min; the maximum FXa (nM), FIXa-cofactor activity after thrombin activation was found to be 25.1 nM; the maximum FXa (nM), FIXa-cofactor activity without thrombin activation came to 30.1 nM. In [2], this molecule returned a maximum rate (nM FXa/min), FIXa-cofactor activity after thrombin activation of 4.24 nM FXa/min; a maximum rate (nM FXa/min), FIXa-cofactor activity without thrombin activation of 6.7 nM FXa/min; a t1/2 of maximum (min), FIXa-cofactor activity after thrombin activation of 4.24 min; a t1/2 of maximum (min), FIXa-cofactor activity without thrombin activation of 4.6 min.
In the case of thrombin, the Relative k' (first order inactivation rate relative to native rFVIII), 0.5 nM thrombin, FIXa-cofactor assay in data set [3] came out at 0.35; in [4] it was 0.44; in data set [5], 0.72; in data set [6] it was 0.51; in data set [7], 0.48; in data set [8], 0.46. In [9], the Relative k' (first order inactivation rate relative to native rFVIII), 0.5 nM thrombin, FIXa-cofactor assay is 0.39.
“rVWF control (mock preparation, not PEGylated) (from UniProt P04275 764-2813)”: the VWF:FVIIIB (U/ml) in data set [10] came to 15.5 U/ml. The VWF:FVIIIB capacity (%) in [11] was found to be 84%. Also, in data set [12], the VWF:FVIIIB (U/mg) is 95 U/mg.
Consider activated protein C (APC), for which the Relative k' of APC-mediated inactivation (non-activated FVIII) relative to native rFVIII amounted to 0.46 in data set [3]; 0.35 in data set [4]; 0.38 in data set [6]; 0.44 in [7]; 0.52 in [8]; 0.56 in data set [9]. Moreover, the Relative k' of APC-mediated inactivation of thrombin-activated FVIII relative to native rFVIIIa was determined as 0.5 in data set [3]; 0.54 in data set [4]; 0.64 in data set [6]; 0.55 in [7]; 0.54 in [8]; 0.5 in [9]. In data set [13], the “first order rate of inactivation k', non-activated rFVIII, 0.05 U/ml APC” value is listed as “a first order rate inactivation was observed, with a k' of 0.220*min^-1”.
Take “native rVWF 133P1 (from UniProt P04275 764-2813)”: the VWF:FVIIIB (U/ml) in data set [10] is 47.9 U/ml and 37.9 U/ml and 37.8 U/ml; in [14] it was 41.2 U/ml; in [19], 46 U/ml. In addition, the VWF:FVIIIB specific activity (U/mg protein) in [15] is 81 U/mg protein; in [20] it was 84 U/mg protein; in [21], 66 U/mg protein; in data set [24], 93 U/mg protein. In addition, the Kd in data set [16] was 0.39 nM; in [18], 0.29 nM and 0.55 nM and 0.48 nM; in data set [22], 0.549 nM. The molecule also returned a VWF:FVIIIB (U/mg) in [12] of 134 U/mg. In addition, the VWF to FVIII ratio to keep all FVIII in a complex in data set [17] came to 1 µg/IU. In data set [23], the VWF:FVIIIB capacity (%) came to 84%.

B1: ADAMTS13 (VWF cleaving protease) (protein)
chain: AAGGILHLELLVAVGPDVFQAHQEDTERYVLTNLNIGAELLRDPSLGAQFRVHLVKMVILTEPEGAPNITANLTSSLLSVCGWSQTINPEDDTDPGHADLVLYITRFDLELPDGNRQVRGVTQLGGACSPTWSCLITEDTGFDLGVTIAHEIGHSFGLEHDGAPGSGCGPSGHVMASDGAAPRAGLAWSPCSRRQLLSLLSAGRARCVWDPPRPQPGSAGHPPDAQPGLYYSANEQCRVAFGPKAVACTFAREHLDMCQALSCHTDPLDQSSCSRLLVPLLDGTECGVEKWCSKGRCRSLVELTPIAAVHGRWSSWGPRSPCSRSCGGGVVTRRRQCNNPRPAFGGRACVGADLQAEMCNTQACEKTQLEFMSQQCARTDGQPLRSSPGGASFYHWGAAVPHSQGDALCRHMCRAIGESFIMKRGDSFLDGTRCMPSGPREDGTLSLCVSGSCRTFGCDGRMDSQQVWDRCQVCGGDNSTCSPRKGSFTAGRAREYVTFLTVTPNLTSVYIANHRPLFTHLAVRIGGRYVVAGKMSISPNTTYPSLLEDGRVEYRVALTEDRLPRLEEIRIWGPLQEDADIQVYRRYGEEYGNLTRPDITFTYFQPKPRQAWVWAAVRGPCSVSCGAGLRWVNYSCLDQARKELVETVQCQGSQQPPAWPEACVLEPCPPYWAVGDFGPCSASCGGGLRERPVRCVEAQGSLLKTLPPARCRAGAQQPAVALETCNPQPCPARWEVSEPSSCTSAGGAGLALENETCVPGADGLEAPVTEGPGSVDEKLPAPEPCVGMSCPPGWGHLDATSAGEKAPSPWGSIRTGAQAAHVWTPAAGSCSVSCGRGLMELRFLCMDSALRVPVQEELCGLASKPGSRREVCQAVPCPARWQYKLAACSVSCGRGVVRRILYCARAHGEDDGEEILLDTQCQGLPRPEPQEACSLEPCPPRWKVMSLGPCSASCGLGTARRSVACVQLDQGQDVEVDEAACAALVRPEASVPCLIADCTYRWHVGTWMECSVSCGDGIQRRRDTCLGPQAQAPVPADFCQHLPKPVTVRGCWAGPCVGQGTPSLVPHEEAAAPGRTTATPAGASLEWSQARGLLFSPAPQPRRLLPGPQENSVQSSACGRQHLEPTGTIDMRGPGQADCAVAIGRPLGEVVTLRVLESSLNCSAGDMLLLWGRLTWRKMCRKLLDMTFSSKTNTLVVRQRCGRPGGGVLLRYGSQLAPETFYRECDMQLFGPWGEIVSPSLSPATSNAGGCRLFINVAPHARIAIHALATNMGAGTEGANASYILIRDTHSLRTTAFHGQQVLYWESESSQAEMEFSEGFLKAQASLRGQYWTLQSWVPEMQDPQSWKGKEGT
In the case of B1, the “loss of VWF:CB activity after 4 h incubation with ADAMTS13 under denaturing conditions” value in [25], in data set [27], in data set [28] and in [29] was “The PEGylated conjugates showed a slightly higher susceptibility to ADAMTS13 than their parent native rVWF” each time. In addition, the “disappearance of higher molecular weight multimers after incubation with ADAMTS13” value in [26] is on record as “All preparations showed similar sensitivity to ADAMTS13”.
